Source: the DeepSol protein solubility set

assay: soluble on expression in E. coli; label from the status in PepcDB or PDB records

Soluble on expression in E. coli, not soluble:
MGSDKIHHHHHHMPMTNLAALSIPDLQQYAQGAVAAPFGLVLDDGSVLQSLEVVRRVPGKRLVCRGLLNGQAIYAKLFIGGQAGKYAARDKRGARWLAQARLATPTLLLESGVASQGCEALLYGAIPARNAEQVWQDLDEEGRHALALRLVEEVARHHRAGLLQTDLYLKNFLVDAQAVYTLDGDGIRQLRVFGRQRQQWDNLARLISKFDVDAVAAWLPSLLRQYVAVIGGGASDIDIMQQLIARHWRRDMRQYASKVQRSCTDVAVEEKPWHYLAINRAQDSPGVRQALATPDGLLDATSAVRLKSGNTCTVAAVEIDQRKMVIKRYNIKNFWHGLGRAWRPSRAVVSWSNAFRLQLKGIATPAAVAVLERRWLGLRREAYLLTEFMIARDAAEFYADLTIDREVKERVAQRIARLFFQLFCLQLEHGDFKATNILIRDQYPLLIDLDSMRQHACKKRFERRHARDLQRFFKNWQGDAATSQLLAAAFRAVYADGRVLDQAGIVFNQSEKDE
MGSDKIHHHHHHMPPVWTLPRLYQHFQGAIDLELWTIPYYLTVLYSIKDPTTVPYRLIQAAVYQEMLHAQLVSNIANAYGYSPTLSAPEYVGTAVPHIDFDLDTPNPTSIFTPYSAELGPLDLTRVNTMCLIEYPEWRTQREPDLADDVTDYGSIGEFYDALRVGMEQLRGHVRGNQKQMDEFGPFYQNSPPLTVTESGDAGFLQALTLVDIIVDQGEGQTQPVETIPTEFQNTADGFQDAWPHFQRFDFIRRMPNWPGVYTGVTDPPAGSPGAEAQARLIADFAGFLDILNGMFSGGGAPPAFGVQMAKLGGDILSCWKLGAVPRYS
MGSDKIHHHHHHMPSLFSLYRKIFFGRKPGWDQQPLPHIKVTAPHVTVSETKVSQYAQVCGFQFDGKVLPPTYLYVMAFRLHAVIFTHDGITFPLLGMIHLKNRIQVYRPVTVDETFSLECALTTSRETDSGLEFEFVSKAFVGEELVWESLSTYLYRIDVAGRRVRPPKAIDMAWETPQSWRLSEDLGRRYAKASGDYNLIHLHPVLSKRFGFDRVLAHGMWSKARCLAELMPSIGDRPFTVDVTFKLPLLMPADVGFGYEQNTDNMVFELRDSKGRRPHLSGDVQF
MGSDKIHHHHHHMPTIVFVGAGSVRYTIKLVGDLAKTPDLYGSRLVLMDIDEERLKATYILVTKYLRELNAEYTVEQTTSLEEALEGADFVINTALYRAPGHEDGYVHYEIMREVGERHGYYRGIDSQELNMVSDYYTLSNYNHLKMSLDIAKAVEKIAPNAWILQTANPVFEITQLVKRLTKAKIVGFCHGYAHVFHLAKVLGVEPEELDWQVAGVNHAIWMNRFRCRGEDLYPKLDEWIEENASRWEPKNPWDVDFSPAAIDMYRFYGMYPIGDTVRSGTWKYHYDLETKKRWYGKFGGIDNEVERPKFYESLREQRKRLMELAKEVEKDPTIELTKVWPEVFTTGSESVEQHIPFINALVNDKKARLVLNVENRGVIKGIPDDVMVEVPVVVDKEGIHPEKIEPDLTDRIKKFYLLPRILRMEWALEAFISGDRRVLEEILVRDPRTRSYEQAVAVIDDILNLPFNEEMKKHYGS
MGSDKIHHHHHHMPTLTEIGNDQLTVQISSLGAEMQSLRTKDGQSLLWHGDAAYWGGRSPILFPIVGKAKDDTLLIDGKPYSMAQHGIARRREFTLLEAGADVCRHELTAGDETKAAYPFDFSLVLEHRLHGAALTVAATVSNRSDTPMPYGLGFHPAFLWPLPGAEGKPHTITLENGAEPPLLRLGGGLLAEEARPSPFHAGRLVLDKSQFEEDAMIFPEGAGTELTYRAEDAASLHFHFENLPNLALWQKPGAPFICIEPWHGMAARHGKSGELTERPYTVILAPGDSARHGFTVTVEA
MGSDKIHHHHHHMPVDSKHPLWLANQPRWERCRTALQGRDAVHAAGEKYLPKLAGQDKAEYDAYKGRAMFYGATARTEEALIGMVFRKEPTVTLPAALQPMIEDADLAGTPVDTFIENVTKEVIDVTRVGVLVDYPVASGEFMTVGQAQAAGMRPYLATYKAEAIINWRTARVRGVNQLVLVVLAECYTDPKDEFTAEEKTQYRVLDLVDGFYRVRIYRTDLNTPAFEYTPMMNGKRLPYIPFVLIGRNGEAIDPQKPVLLDLVDVNMSHYRGTADYEHALHFTALPTAVVIGHELKEGQALKIGSSEAWVFTDPQADAKYLEFSGQGLDSIKVSLERKEGMMATLGARILAPEKRDAEAAETAKIHRAGENSVLGGIALGVGRSLAKAFRWAAEWAGAGSGTVEVKLNTEFFPAGLTAQDLTALVGALQAAAISPQTFYDNMRRGSIIDDGVTFEEEQDRIEAAGPALGTLGGQDVKPANGAV
MGSDKIHHHHHHMPVLNSVANTVPTRFRFDLLTHDDNDRLQSDSLCPVGFTSLGREPVRLKFGGTKIRDFCVWKTESATGFEARPRVVSDLVTIRFPISGGLARKDGREEVNIDRGQGVIIPFRDMEYERTSRSASMISCTIASVSIFQKMQALYGEERSTFASFVPVVDVNIPQIRIFRTALLRLHDNLQQHGDHNPLSFPIVEELLVFHLLSCWPTTAAVRPTADQVNNRVLRNALDYIEANLASPITVSEIAFAAGVSVRSLQIAFRESKGITPVQYIIECRLDRVHDALKRGFAPGYISQIANAWGFQHHADFSRRYRKRFGETPKQTRTR
MGSDKIHHHHHHMQETKTTVRASTLSNGRSLAAYHEDFDRKWASAWGRTLTYAQMHANRVVQSARIVLSHPDIWGKVASGFVNAARGRKRLLRSLEIAVTYRCNARCEQCSCRRDHDPVREKTELLTLPELQRVIDEAVDMGAFQFCINGGEPMLEEEKVFALLDYIKTRHKGYVHLCTNGTLLDDDKVARLAEHHLDSVEMGFDSAFEDVHDANRVRGGYRKVFHNIEAFRKRGVGVVLNTILTNQKVRSDDMLFTMDLAKKHGCMLQVTPCCLTGALRGRMDMMLTEKARFYFYWFLAQSTNNRSDLYSSLTRIKCPAGREKLGLQPYGDVVSCPLIQIRYGNVREKGLAAIQQDILADPYYGLDGSHGCLPAMSETFIRERLSGDR
MGSDKIHHHHHHMQIKNLSLKNKKDLQIWKEFLTEHGISNFSSAEVFKIDETIALFEDQRIVATGSLAGNVLKYIAVESEGSGSEFNSVISQLTNLAAGKGIFHLFVFTKAKYSKSFQFIGFKELAKSDNAALLESGDYLIGDYLAELPRVANQEEKKIAGIVMNANPFTKGHRYLVEKAASENDYVYVFVVSTDASLFNSKERLQLVKEGTADLKNVFVVSGGDYMVSYATFPAYFLTSDQTVIEYQTTLDALIFKNQIAPVLNIQTRFLGEEPFSKTTGIYNRILEKVLPPSVSVKIIPRAKTQSETIITATEVRQLIAKNNLVPLKQFLPFTTIKYVEEHKTELQSRIKKGININGN
MGSDKIHHHHHHMQILTIDVGGTTALFELQLAGHTEQYKIPTGEGFKIEELNNQIAALERDYDLQDYQLAIGVPGLVQNNRLVACKSLPGLNGLSFDTVKTQGELKFICNDMDAGMQATCDAKYACELLVMCGTGIGMSIAFNGQAFTGATGVAGELGHCRVMTESGEFSLEQLASGDSVRSRNITTQDDLYRAGSYLGMGLAWTVNLFNPNRIWLAGNMMNSAPYYKGCLESLKQMALSAPLAEMKINRVDDMETLVCRGLSAMLARDYPRA
MGSDKIHHHHHHMQINNKIIISCSIIASLVSQTTYAQINTGTTSNKLTAFIHAELIIAPGKRLSDATLLVGNNRIKAIIEHGDIPAGAFKIDLSGYTIYPGFIDPFTDYGIEFEYPKLGLTRPVYGIKRIGGNADNGAIHSEKEWFNYVYPNKERAKEWINNGFTSVQSSKLDGIFRGTGVSLSLADKTANEVIYRARSQPFMAFDKGSSEQDYPSSLMGSIALIRPRIQIISATLGQNGEEGVSC
MGSDKIHHHHHHMQIVACYSNKGGVGKTATAVNLAYAFATSGRRTLLCDLDPQGASGFYFRVKPSKKLTEARFFEDVEHFTKSIRGSDYDNLDILPANMSFRDFDVFLSKMKDARSRLKKALKAVKGDYDIVLLDCPPNISILSENIFRAADAVVTPVIPTTLSQRTFEQLLEFFREHDLPMEKIHAFFSMIQGTKTLHGEMIVELTHNYPKRIMAAKIPFASEIERMGVVRAPVLATAPDSPAGKAYQALFDELLERIVP
MGSDKIHHHHHHMQIVQIEQAPKDYISDIKIIPSKSLLLITSWDGSLTVYKFDIQAKNVDLLQSLRYKHPLLCCNFIDNTDLQIYVGTVQGEILKVDLIGSPSFQALTNNEANLGICRICKYGDDKLIAASWDGLIEVIDPRNYGDGVIAVKNLNSNNTKVKNKIFTMDTNSSRLIVGMNNSQVQWFRLPLCEDDNGTIEESGLKYQIRDVALLPKEQEGYACSSIDGRVAVEFFDDQGDDYNSSKRFAFRCHRLNLKDTNLAYPVNSIEFSPRHKFLYTAGSDGIISCWNLQTRKKIKNFAKFNEDSVVKIACSDNILCLATSDDTFKTNAAIDQTIELNASSIYIIFDYEN
MGSDKIHHHHHHMQKHARVIYNPTSGREIIKKNLADVLSILEQAGYVTSAHATTAEPDDAKHAAEEAVRNRFDLVVAAGGDGTINEVINGIAEKEYRPKVGIIPTGTTNDFARALHVPRDVIKATKIIAAGQSVAMDIGKANETYFINIGGGGRLTELTYDVPSRLKTMLGQLAYYLKGIEMLPSLKATKVKVEYDQGVFEGEVMFFLLGLTNSIGGFEKIAPDAKLDDGKFSLIIVKKVNLAEFIRLVTLALRGDHIKEPNVIYVKSEKVIVNSEDKMLINLDGELGGETPMEFRNLRQHIEFFASVDDIPATDLFIKENS
MGSDKIHHHHHHMQKKRFFDMRKYRFFSSIECDAMLTFKQMEALYWIVQLGSFDAAATRLNTTQSAVSKRIQELERAFDLTVFDRAHRSARLTDKGAELFDHAKELLEQRDRVVERMSSKEALVRHVRIGVTELTALTWLPRLIAAIQAAYPRVHVEAEVDLTATLRERLAADTIDLIVVPQIHAAESFAATVVGEVDNAWMCAPGFMPKRKTAISLTDVARFPLILQGTLSGTGHLYTRFLQEHCVAMQRVLTSNSLIAQIGLTLSGLGVSYLPKACVAHLVACEALDIVRTRPALPPVRYVALHRAERAHSLTADIVRLAAQACDFSTSLLDPGAHD
MGSDKIHHHHHHMQPRLVIAGTHSGVGKTTVTLGLMAAFVEKGNIVQGFKCGPDYIDPSYHRAVTKRASRNLDSWMVSEDVVNDIFIEGCNGADLSIIEGVMGFYDGKASTSDKGSTADISLLLQAPVLLVVDISGMARSAAAVVKGFQQLNEKVKIAGVILNGAGSERHAEMCSEAIKEACGIPALGYLKKGDVPSIPERHLGLVPALERGEHDSLFSQLAAVVSRQFDLERIERLALEASALSRRTNLFQQTKRPSVVKIAVAYDAAFHFYYEENFTLLRQAGAELVYFSPLRGEDLPSHCDGLYLGGGFPEEFADELSQWIKDHPQLKKRVQSGLPTLAECGGYMFLGEQLTTTKGKTVEMAGVIPMVVQMENKLVSLGYRDVTPLDDSFLLSKGQQIRGHEFHYSKAVYTETERPAYFVKGLFGEGKEGYMSDHLLAGYTHLHFASEPAVATQWVKACEVYKNRRLHRGQVSQ
MGSDKIHHHHHHMQSPIPVLSMRKLYLGASDRQQFIADLGRAARDVGFFYLEDHGISLAEQVKVLDTAKSFFALSDAEKKQVQMIHSPHFRGYSANYSELTAGRPDRREQFDIMDELPALSASAIHHEWQKLIGPNQWPRQLPAIKSQLLSWQDKLTEVSLQLLAALCESLEQPADALAETISNGPYRHTKLIKYPGSPEASGQGVGAHKDPGYLTLVLQDENSGLEVEYEQQWYKVAPRPGAFVVNIGELLELASNGYLKATNHRVSSPKTGVTRYSSAFFMAAQLNASVPVLKLPSHLAKHAKGPTSDPGNPLLHNVGENVMKGRKRSHPDVSARFYASEEKCSSC
